Data taken from the supplement of paper PMC7877785.
± gives the uncertainty stated by the source.

Experiment: self-splicing fitness, log relative to wild type (ln ratio); higher = more splicing; Tetrahymena group I intron in knt gene, E. coli kanamycin selection, DiMSum; sequences stand for … in CUCUCU…GGAGGGAAAAGUUAUCAGGCAUGCACCUGGUAGCUAGUCUUUAAACCAAUAGAUUGCAUCGGUUUAAAAGGCAAGACCGUCAAAUUGCGGGAAAGGGGUCAACAGCCGUUCAGUACCAAGUCUCAGGGGAAACUUUGAGAUGGCCUUGCAAAGGGUAUGGUAAUAAGCUGACGGACAUGGUCCUAACCACGCAGCCAAGUCCUAAGUCAACAGAUCUUCUGUUGAUAUGGAUGCAGUUCACAGACUAAAUGUCGGUCGGGGAAGAUGUAUUCUUCUCAUAAGAUAUAGUCGGACCUCUCCUUAAUGGGAGCUAGCGGAUGAAGUGAUGCAACACUGGAGCCGCUGGGAACUAAUUUGUAUGCGAAAGUAUAUUGAUUAGUUUUGGAGUACUCGUGGUCG
Summary of the method: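 A randomised library covering all eight P1ex-region intron nucleotides was built with the intron in the knt kanamycin-resistance gene on pET-22b(+) and held in E. coli BL21(DE3). Cells were grown overnight at 37°C or 30°C on LB agar, with or without 25 μg/mL kanamycin, plus 100 μg/mL carbenicillin, 50 μM IPTG and 0.2% rhamnose, and pooled colonies were amplicon-sequenced on an Illumina HiSeq 2500. DiMSum fitness is the error-weighted combination of wild-type-normalised replicate fold changes, kanamycin versus none.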

Row | Sequence | self-splicing fitness (ln) (30 °C) | self-splicing fitness (ln) (37 °C)
1 | ACCAAGCAAUAUUACGUGAU | -2.46 ± 0.072 | -0.924 ± 0.074
2 | ACCAAGCAAUAUUACGUGCC | -0.735 ± 0.082 | -0.801 ± 0.13
3 | ACCCAGCAAUAUUACGAACC | -2.19 ± 0.15 | -0.993 ± 0.15
4 | ACCCAGCAAUAUUACGACAG | -3.36 ± 0.12 | -1.67 ± 0.11
5 | ACCCAGCAAUAUUACGACGU | -0.291 ± 0.055 | 0.39 ± 0.071
6 | ACCCAGCAAUAUUACGAGAG | -2.16 ± 0.086 | -0.789 ± 0.09
7 | ACCCAGCAAUAUUACGAUAU | -1.72 ± 0.1 | -0.318 ± 0.11
8 | ACCCAGCAAUAUUACGAUCA | -0.557 ± 0.11 | -0.56 ± 0.13
9 | ACCCAGCAAUAUUACGAUCU | -1.34 ± 0.068 | -0.243 ± 0.084
10 | ACCCAGCAAUAUUACGCAAU | -0.941 ± 0.053 | 0.344 ± 0.064
11 | ACCCAGCAAUAUUACGCAGG | -3.07 ± 0.11 | -2.48 ± 0.16
12 | ACCCAGCAAUAUUACGCAUA | -1.19 ± 0.061 | -1.07 ± 0.066
13 | ACCCAGCAAUAUUACGCCCA | -0.605 ± 0.12 | -0.4 ± 0.13
14 | ACCCAGCAAUAUUACGCCCG | -2.3 ± 0.18 | -1.22 ± 0.19
15 | ACCCAGCAAUAUUACGCCCU | -0.0641 ± 0.052 | 0.262 ± 0.091
16 | ACCCAGCAAUAUUACGCCUG | -2.21 ± 0.12 | -3 ± 0.26
17 | ACCCAGCAAUAUUACGCGAA | -1.26 ± 0.068 | -0.703 ± 0.078
18 | ACCCAGCAAUAUUACGCUAG | -2.81 ± 0.1 | -1.77 ± 0.12
19 | ACCCAGCAAUAUUACGCUUG | -3.38 ± 0.11 | -2.43 ± 0.12
20 | ACCCAGCAAUAUUACGGCAU | -0.483 ± 0.042 | 0.0474 ± 0.058
21 | ACCCAGCAAUAUUACGGGGA | -1.02 ± 0.053 | -0.524 ± 0.065
22 | ACCCAGCAAUAUUACGGUAU | -0.563 ± 0.047 | -0.154 ± 0.068
23 | ACCCAGCAAUAUUACGGUCC | -1.61 ± 0.085 | -1.4 ± 0.12
24 | ACCCAGCAAUAUUACGGUCG | -3.85 ± 0.14 | -1.75 ± 0.095
